Legend:
Tbk1 transcript = assay: In vivo knockdown efficiency by quantitative PCR in sorted transduced cells; set-up: species or system mouse; details: sorted shTbk1+CD4+ T cells
Procedure: Isolation of mRNA, cDNA synthesis and real-time PCR. Total RNA was extracted from sorted CD4^+ Ametrine- and CD4^+ Ametrine^+ cells using the RNeasy kit (Qiagen). RNA was used to synthesize cDNA by the SuperScript III FirstStrand cDNA synthesis kit (Life Technologies). […]; Relative gene expression levels were determined in triplicates, calculated using the 2-° Act method and normalized to the level of ACTB.

Tfh cells = details: mouse, in vivo
[1] = tested on: GC B cells and plasma cells; format: in vivo, mouse; details: KLH-gp61 in alum, 10 d
TBK1 [2] = biological target: T1, TBK1 (Homo sapiens, UniProt Q9UHD2); assay: ICOS immunoprecipitation and immunoblotting in transfected Jurkat (JTAg) T cells; format: binding; set-up: endogenous in cells; host or cells: Jurkat JTAg T cells transfected with ICOS plasmids; details: Jurkat (JTAg) cells stimulated with anti-CD3 plus -ICOS mAbs
T1 sequence (Q9UHD2 1-729): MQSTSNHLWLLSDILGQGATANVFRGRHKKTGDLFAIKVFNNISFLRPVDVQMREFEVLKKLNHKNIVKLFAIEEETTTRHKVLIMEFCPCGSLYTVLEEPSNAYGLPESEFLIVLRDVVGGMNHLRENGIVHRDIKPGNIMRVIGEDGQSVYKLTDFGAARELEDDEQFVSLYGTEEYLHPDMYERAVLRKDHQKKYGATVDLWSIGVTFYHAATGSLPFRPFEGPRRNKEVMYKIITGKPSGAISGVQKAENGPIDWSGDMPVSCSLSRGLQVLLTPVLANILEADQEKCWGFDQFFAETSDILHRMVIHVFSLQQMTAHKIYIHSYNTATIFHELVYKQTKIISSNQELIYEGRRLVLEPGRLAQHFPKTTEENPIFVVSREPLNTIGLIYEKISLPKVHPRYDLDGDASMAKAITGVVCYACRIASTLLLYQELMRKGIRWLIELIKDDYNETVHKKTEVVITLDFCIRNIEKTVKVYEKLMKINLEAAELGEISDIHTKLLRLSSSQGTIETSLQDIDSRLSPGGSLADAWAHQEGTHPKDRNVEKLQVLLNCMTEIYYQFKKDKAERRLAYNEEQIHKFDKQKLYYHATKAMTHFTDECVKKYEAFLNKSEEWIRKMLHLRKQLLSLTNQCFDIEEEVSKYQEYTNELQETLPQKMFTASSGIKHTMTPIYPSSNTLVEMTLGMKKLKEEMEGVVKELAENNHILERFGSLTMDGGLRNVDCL
Procedure: (§1) Immunoprecipitation and immunoblotting. The human leukemic Jurkat T cell line, JTAg, was previously described (Li, J et al. J Immunol 2013, 191(1): 200-207; Rolf J et al., J Immunol 2010, 185(7): 4042-4052) and the HEK 293T cell line was obtained from ATCC. These cell lines have not been recently STR profiled but tested negative for mycoplasma contamination. JTAg cells in logarithmic growth phase were transfected with plasmid DNAs by electroporation and incubated for 24 hours. Transfection of HEK293T cells was carried out via liposomes-mediated transfection with plasmid DNAs. For experiments using primary mouse T cells, purified CD4+ T cells were activated in vitro with anti-mouse CD3 (clone 145-2C11) and CD28 (clone 37.51) for 48 hours prior to resting in the presence of IL-2 for another 48 hours. Transfected JTAg cells and preactivated mouse CD4^+ T cells were stimulated with anti-CD3 and anti-ICOS (clone C398.4A) monoclonal antibodies (mAbs) in the presence of a cross-linking antibody (Ab) for 2 minutes. […] The intensity of bands was measured using the ImageJ software (NIH). To determine the ratio of TBK1 to p85a, the band intensity on IP blots and WCL blots were measured for TBK1 and p85a, respectively, and the ratio was expressed as (IP TBK1)/(WCL TBK1): (IP p85a)/(WCL p85a).

TBK1 [3] = biological target: T1, TBK1; assay: Anti-FLAG immunoprecipitation of WT or mutated TRAF2/TRAF3 in HEK293T cells; format: binding; set-up: endogenous in cells; details: FLAG-tagged TRAF in HEK293T cells
Procedure: as §1

shTbk1 (guide AAGACATAAAGTGCTTATTATG; expressed or natural sequence)
Tbk1 transcript reduced (Tbk1 transcript): ~80%

B1: WT ICOS (protein)
chain: EINGSANYEMFIFHNGGVQILCKYPDIVQQFKMQLLKGGQILCDLTKTKGSGNTVSIKSLKFCHSQLSNNSVSFFLYNLDHSHANYYFCNLSIFDPPPFKVTLTGGYLHIYESQLCCQLKFWLPIGCAAFVVVCILGCILICWLTKKKYSSSVHDPNGEYMFMRAVNTAKKSRLTDVTL
CXCR5+SLAMlo Tfh cell population (Tfh cells): differentiated
differentiation of CXCR5+PD1hi GC Tfh cells (Tfh cells): restored
nascent CXCR5+Bcl6+ Tfh cells (Tfh cells): able to differentiate
B cell differentiation (Fas+GL7+ GC B cells and class-switched IgD-CD138+ plasma cells) [1]: supported the differentiation
interaction with endogenous TBK1 in ICOS IPs (TBK1 [2]): interacted strongly

B2: WT TRAF2 (protein)
chain: MAAASVTPPGSLELLQPGFSKTLLGTKLEAKYLCSACRNVLRRPFQAQCGHRYCSFCLASILSSGPQNCAACVHEGIYEEGISILESSSAFPDNAARREVESLPAVCPSDGCTWKGTLKEYESCHEGRCPLMLTECPACKGLVRLGEKERHLEHECPERSLSCRHCRAPCCGADVKAHHEVCPKFPLTCDGCGKKKIPREKFQDHVKTCGKCRVPCRFHAIGCLETVEGEKQQEHEVQWLREHLAMLLSSVLEAKPLLGDQSHAGSELLQGCESLEKKTATFENIVCVLNREVERVAMTAEACSRQHRLDQDKIEAPSSKVQQLERSIGLKDLAMADLEQKVSEMEASTYDGVFIWKISDFARKRQEAVAGRIPAIFSPAFYTRRYGYKMCLRIYLNGDGTGRGTHLSLFFVVMKGPNDALLRWPFNQKVTLMLLDQNNREHVIDAFRPDVTSSSFQRPVNDMNIASGCPLFCPVSKMEAKDSYVRDDAIFIKAIVDLTGL
modifications: left off: small tags and cut ends
interaction with TBK1 (TBK1 [3]): interacted strongly

B3: TRAF3 (protein, UniProt Q13114 1-568, looked up)
TNF receptor-associated …: MESSKKMDSPGALQTNPPLKLHTDRSAGTPVFVPEQGGYKEKFVKTVEDKYKCEKCHLVLCSPKQTECGHRFCESCMAALLSSSSPKCTACQESIVKDKVFKDNCCKREILALQIYCRNESRGCAEQLMLGHLLVHLKNDCHFEELPCVRPDCKEKVLRKDLRDHVEKACKYREATCSHCKSQVPMIALQKHEDTDCPCVVVSCPHKCSVQTLLRSELSAHLSECVNAPSTCSFKRYGCVFQGTNQQIKAHEASSAVQHVNLLKEWSNSLEKKVSLLQNESVEKNKSIQSLHNQICSFEIEIERQKEMLRNNESKILHLQRVIDSQAEKLKELDKEIRPFRQNWEEADSMKSSVESLQNRVTELESVDKSAGQVARNTGLLESQLSRHDQMLSVHDIRLADMDLRFQVLETASYNGVLIWKIRDYKRRKQEAVMGKTLSLYSQPFYTGYFGYKMCARVYLNGDGMGKGTHLSLFFVIMRGEYDALLPWPFKQKVTLMLMDQGSSRRHLGDAFKPDPNSSSFKKPTGEMNIASGCPVFVAQTVLENGTYIKDDTIFIKVIVDTSDLPDP
interaction with TBK1 (TBK1 [3]): interacted strongly

From patent US11547739B2, “Peptides and methods related to ICOS signaling” (priority 2015, dated 2023)
